In patent US20250277032A1:

Legend:
[1] = target: human ILT3 on the cell surface (recombinant human ILT3 exogenously overexpressed on HEK cells; ILT3 on THP-1 cells, DCs, macrophages) (human) (UniProt Q8NHJ6); assay: flow cytometry on HEK cells overexpressing recombinant human ILT3
[2] = target: human ILT3 on the cell surface (recombinant human ILT3 exogenously overexpressed on HEK cells; ILT3 on THP-1 cells, DCs, macrophages) (human) (UniProt Q8NHJ6); assay: cell-based or functional assay

Chain of fibronectin (FN1), P02751 32-2477 (ligand) (P02751 32-2477 limits assumed): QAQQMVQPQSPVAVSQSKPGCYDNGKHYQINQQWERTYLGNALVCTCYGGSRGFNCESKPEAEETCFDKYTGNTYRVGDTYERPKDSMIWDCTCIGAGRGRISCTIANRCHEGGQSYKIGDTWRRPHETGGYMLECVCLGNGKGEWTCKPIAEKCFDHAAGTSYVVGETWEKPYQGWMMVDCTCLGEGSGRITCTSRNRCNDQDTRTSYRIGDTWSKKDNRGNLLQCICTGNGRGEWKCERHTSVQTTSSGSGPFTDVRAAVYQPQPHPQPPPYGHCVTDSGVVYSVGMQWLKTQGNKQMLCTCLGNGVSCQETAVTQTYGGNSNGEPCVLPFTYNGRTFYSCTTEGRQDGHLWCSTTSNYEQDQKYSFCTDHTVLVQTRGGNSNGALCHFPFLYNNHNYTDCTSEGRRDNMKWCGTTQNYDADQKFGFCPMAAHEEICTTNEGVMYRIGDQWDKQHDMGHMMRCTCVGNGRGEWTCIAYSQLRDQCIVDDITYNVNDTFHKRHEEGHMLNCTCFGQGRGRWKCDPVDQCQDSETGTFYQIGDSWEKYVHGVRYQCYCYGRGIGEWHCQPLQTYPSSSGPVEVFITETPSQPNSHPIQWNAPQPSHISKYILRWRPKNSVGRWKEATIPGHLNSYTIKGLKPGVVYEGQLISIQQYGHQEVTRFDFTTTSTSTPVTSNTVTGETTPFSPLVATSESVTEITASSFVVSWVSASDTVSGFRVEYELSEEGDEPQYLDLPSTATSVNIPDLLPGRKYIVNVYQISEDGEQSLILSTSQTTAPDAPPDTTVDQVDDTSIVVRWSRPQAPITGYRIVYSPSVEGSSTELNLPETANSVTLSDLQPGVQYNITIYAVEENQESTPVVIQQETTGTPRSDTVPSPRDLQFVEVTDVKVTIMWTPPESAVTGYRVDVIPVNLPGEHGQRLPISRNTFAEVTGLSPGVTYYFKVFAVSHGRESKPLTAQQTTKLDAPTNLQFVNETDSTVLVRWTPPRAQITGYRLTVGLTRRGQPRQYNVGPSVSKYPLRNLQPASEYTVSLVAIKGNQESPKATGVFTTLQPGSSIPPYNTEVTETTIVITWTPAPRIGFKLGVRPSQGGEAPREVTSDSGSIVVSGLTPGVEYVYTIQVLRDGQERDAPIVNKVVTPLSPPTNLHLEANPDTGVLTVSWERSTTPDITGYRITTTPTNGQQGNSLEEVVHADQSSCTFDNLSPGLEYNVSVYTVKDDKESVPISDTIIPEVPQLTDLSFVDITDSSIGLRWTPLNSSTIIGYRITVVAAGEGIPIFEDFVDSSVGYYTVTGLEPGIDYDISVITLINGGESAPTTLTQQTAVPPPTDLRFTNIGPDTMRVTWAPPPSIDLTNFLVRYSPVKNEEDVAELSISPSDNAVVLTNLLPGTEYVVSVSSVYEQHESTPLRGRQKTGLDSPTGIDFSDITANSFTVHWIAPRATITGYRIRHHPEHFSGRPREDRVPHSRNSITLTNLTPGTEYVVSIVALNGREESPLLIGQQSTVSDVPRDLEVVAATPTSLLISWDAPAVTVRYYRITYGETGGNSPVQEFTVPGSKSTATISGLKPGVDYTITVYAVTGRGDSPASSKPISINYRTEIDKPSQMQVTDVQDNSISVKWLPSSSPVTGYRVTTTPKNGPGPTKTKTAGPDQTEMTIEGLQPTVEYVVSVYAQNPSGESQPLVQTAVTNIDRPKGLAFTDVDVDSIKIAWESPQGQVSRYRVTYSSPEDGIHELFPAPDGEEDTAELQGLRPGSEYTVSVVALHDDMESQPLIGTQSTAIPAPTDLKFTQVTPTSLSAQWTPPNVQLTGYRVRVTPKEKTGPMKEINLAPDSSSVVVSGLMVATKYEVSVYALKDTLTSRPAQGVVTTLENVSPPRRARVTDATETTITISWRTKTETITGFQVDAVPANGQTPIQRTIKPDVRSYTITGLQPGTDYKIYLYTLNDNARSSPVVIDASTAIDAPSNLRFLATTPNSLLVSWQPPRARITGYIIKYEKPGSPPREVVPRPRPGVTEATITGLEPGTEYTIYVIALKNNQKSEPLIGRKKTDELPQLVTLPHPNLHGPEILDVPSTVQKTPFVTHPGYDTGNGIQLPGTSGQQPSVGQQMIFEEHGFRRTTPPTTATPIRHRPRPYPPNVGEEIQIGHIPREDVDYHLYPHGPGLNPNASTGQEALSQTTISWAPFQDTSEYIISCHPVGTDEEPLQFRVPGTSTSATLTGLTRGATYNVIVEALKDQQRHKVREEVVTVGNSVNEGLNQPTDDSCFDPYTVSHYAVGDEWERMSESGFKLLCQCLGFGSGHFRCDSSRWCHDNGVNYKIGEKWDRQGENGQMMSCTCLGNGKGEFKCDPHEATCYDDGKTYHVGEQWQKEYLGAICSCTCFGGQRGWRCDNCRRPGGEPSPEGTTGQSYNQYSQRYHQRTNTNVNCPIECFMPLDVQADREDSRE

average fluorescence [1]	decrease in IL-8 secretion from THP-1 cells activated with immobilized Rituximab [2]	Substance
118	–	ZM4.1 (commercial anti-ILT3 antibody)
–	67%	fibronectin (FN1), P02751 32-2477 (ligand)
